Among the data in publication PMC8692352 (2023) are Kd values, retold here.

A word on the Kd: it is the constant that tells how readily two partners part at equilibrium. A low value points to a tighter complex.

First the molecules themselves.
B1: α-globin chain (protein)
chain: not shown
B2: hemoglobin A (protein)
chain 1: not shown
chain 2: not shown
B3: β-globin chain (protein)
chain: not shown
B4: tPA (protein)
chain: SYQVICRDEKTQMIYQQHQSWLRPVLRSNRVEYCWCNSGRAQCHSVPVKSCSEPRCFNGGTCQQALYFSDFVCQCPEGFAGKCCEIDTRATCYEDQGISYRGTWSTAESGAECTNWNSSALAQKPYSGRRPDAIRLGLGNHNYCRNPDRDSKPWCYVFKAGKYSSEFCSTPACSEGNSDCYFGNGSAYRGTHSLTESGASCLPWNSMILIGKVYTAQNPSAQALGLGKHNYCRNPDGDAKPWCHVLKNRRLTWEYCDVPSCSTCGLRQYSQPQFRIKGGLFADIASHPWQAAIFAKHRRSPGERFLCGGILISSCWILSAAHCFQERFPPHHLTVILGRTYRVVPGEEEQKFEVEKYIVHKEFDDDTYDNDIALLQLKSDSSRCAQESSVVRTVCLPPADLQLPDWTECELSGYGKHEALSPFYSERLKEAHVRLYPSSRCTSQHLLNRTVTDNMLCAGDTRSGGPQANLHDACQGDSGGPLVCLNDGRMTLVGIISWGLGCGQKDVPGVYTKVTNYLDWIRDNMRP

In the assay the target is T1, plasminogen (Homo sapiens, UniProt P00747).
T1 chain: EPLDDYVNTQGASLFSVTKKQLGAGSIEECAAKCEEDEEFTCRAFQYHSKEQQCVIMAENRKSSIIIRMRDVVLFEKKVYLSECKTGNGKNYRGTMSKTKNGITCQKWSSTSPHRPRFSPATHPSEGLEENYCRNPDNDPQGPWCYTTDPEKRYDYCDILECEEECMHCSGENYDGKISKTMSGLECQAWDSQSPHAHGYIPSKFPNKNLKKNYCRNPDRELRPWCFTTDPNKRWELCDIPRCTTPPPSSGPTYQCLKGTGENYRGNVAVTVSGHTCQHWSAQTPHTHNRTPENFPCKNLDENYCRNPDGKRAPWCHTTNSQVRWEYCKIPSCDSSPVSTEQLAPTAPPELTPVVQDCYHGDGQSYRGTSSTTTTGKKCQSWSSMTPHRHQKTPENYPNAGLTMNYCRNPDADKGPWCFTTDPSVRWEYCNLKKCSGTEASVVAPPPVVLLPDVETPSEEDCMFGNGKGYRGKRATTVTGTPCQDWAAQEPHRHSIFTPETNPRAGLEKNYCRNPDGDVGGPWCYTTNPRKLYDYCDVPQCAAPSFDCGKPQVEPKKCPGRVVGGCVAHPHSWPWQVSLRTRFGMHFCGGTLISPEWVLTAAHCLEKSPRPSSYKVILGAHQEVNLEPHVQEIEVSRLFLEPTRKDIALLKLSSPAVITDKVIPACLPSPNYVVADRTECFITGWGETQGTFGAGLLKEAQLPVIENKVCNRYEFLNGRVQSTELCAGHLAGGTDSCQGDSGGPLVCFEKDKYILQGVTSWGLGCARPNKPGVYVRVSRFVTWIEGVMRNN
In words: SPR. A general note: SPR reads the build-up and loss of mass on a sensor chip optically.
B1 gave a dissociation constant (Kd) of 93 nM.

Take B2: the Kd was 3600 nM.

Consider B3, for which the Kd stood at 4000 nM.

B4 registered a Kd of 48 nM.
